Reference: PMC10397247

Experiments:
Test in all cases: two-hybrid library CCNG1;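 further: natural log of median RNA to DNA barcode read ratio; higher means stronger binding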
4H470-bN = target: T1, 4H470-bN
T1 chain: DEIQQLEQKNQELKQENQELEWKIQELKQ

4H2588-bN = target: T2, 4H2588-bN
T2 chain: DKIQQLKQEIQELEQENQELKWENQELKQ

4H2692-bN = target: T3, 4H2692-bN
T3 chain: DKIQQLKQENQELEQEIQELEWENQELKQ

4H2717-bN = target: T4, 4H2717-bN
T4 chain: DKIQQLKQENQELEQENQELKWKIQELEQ

4H2839-bN = target: T5, 4H2839-bN
T5 chain: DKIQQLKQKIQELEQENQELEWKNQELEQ

4H2915-bN = target: T6, 4H2915-bN
T6 chain: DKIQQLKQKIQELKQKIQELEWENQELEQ

4H3057-bN = target: T7, 4H3057-bN
T7 chain: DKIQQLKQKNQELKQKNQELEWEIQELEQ

4H319-bN = target: T8, 4H319-bN
T8 chain: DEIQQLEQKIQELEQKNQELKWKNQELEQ

4H3277-bN = target: T9, 4H3277-bN
T9 chain: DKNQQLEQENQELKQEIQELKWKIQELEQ

4H348-bN = target: T10, 4H348-bN
T10 chain: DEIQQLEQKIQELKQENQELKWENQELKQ

4H40-bN = target: T11, 4H40-bN
T11 chain: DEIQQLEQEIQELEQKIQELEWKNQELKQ

4H477-bN = target: T12, 4H477-bN
T12 chain: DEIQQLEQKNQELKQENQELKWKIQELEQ

4H492-bN = target: T13, 4H492-bN
T13 chain: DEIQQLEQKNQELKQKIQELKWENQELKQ

4H741-bN = target: T14, 4H741-bN
T14 chain: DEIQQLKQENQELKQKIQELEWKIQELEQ

4H2585-bH = target: T15, 4H2585-bH
T15 chain: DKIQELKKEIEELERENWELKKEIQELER

4H264-bH = target: T16, 4H264-bH
T16 chain: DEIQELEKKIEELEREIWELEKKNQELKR

4H2760-bH = target: T17, 4H2760-bH
T17 chain: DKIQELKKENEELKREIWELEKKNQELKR

4H2859-bH = target: T18, 4H2859-bH
T18 chain: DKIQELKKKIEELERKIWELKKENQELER

4H2931-bH = target: T19, 4H2931-bH
T19 chain: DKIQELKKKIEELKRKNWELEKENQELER

4H3041-bH = target: T20, 4H3041-bH
T20 chain: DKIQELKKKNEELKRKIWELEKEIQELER

4H3297-bH = target: T21, 4H3297-bH
T21 chain: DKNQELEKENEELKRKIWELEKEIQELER

4H3364-bH = target: T22, 4H3364-bH
T22 chain: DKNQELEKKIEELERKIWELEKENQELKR

4H3381-bH = target: T23, 4H3381-bH
T23 chain: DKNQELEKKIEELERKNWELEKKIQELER

4H349-bH = target: T24, 4H349-bH
T24 chain: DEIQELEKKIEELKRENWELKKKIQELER

4H4001-bH = target: T25, 4H4001-bH
T25 chain: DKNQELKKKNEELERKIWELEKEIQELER

4H56-bH = target: T26, 4H56-bH
T26 chain: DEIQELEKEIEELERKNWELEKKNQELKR

4H730-bH = target: T27, 4H730-bH
T27 chain: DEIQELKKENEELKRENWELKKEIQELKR

4H796-bH = target: T28, 4H796-bH
T28 chain: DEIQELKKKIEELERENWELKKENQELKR

4H932-bH = target: T29, 4H932-bH
T29 chain: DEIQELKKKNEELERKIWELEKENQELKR

4H949-bH = target: T30, 4H949-bH
T30 chain: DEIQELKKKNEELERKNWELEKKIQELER

Work on DEIQQLEQKNQELKQENQELEWKIQELKQ [4H470-bN] yielded an interaction score (4H470-bN) of -0.484.

Work on DKIQQLKQEIQELEQENQELKWENQELKQ [4H2588-bN] yielded an interaction score (4H2588-bN) of 0.138, an interaction score (4H2692-bN) of 0.0187 and an interaction score (4H2717-bN) of 0.223. The interaction score (4H2839-bN) was -1.16, the interaction score (4H2915-bN) was 0.795 and the interaction score (4H3057-bN) was -1.34. For the same binder, the interaction score (4H319-bN) was -0.863, the interaction score (4H3277-bN) was -0.49 and the interaction score (4H348-bN) was 1.49. It also gave an interaction score (4H40-bN) of -0.648, an interaction score (4H477-bN) of -1.95 and an interaction score (4H492-bN) of -0.343. The interaction score (4H741-bN) was 0.0254.

For DKIQELKKEIEELERENWELKKEIQELER [4H2585-bH], the interaction score (4H2585-bH) was -0.17, the interaction score (4H264-bH) was -0.751 and the interaction score (4H2760-bH) was 0.55. The interaction score (4H2859-bH) was 0.965, the interaction score (4H2931-bH) was -0.336 and the interaction score (4H3041-bH) was 0.00364. It also gave an interaction score (4H3297-bH) of -0.417, an interaction score (4H3364-bH) of -0.536 and an interaction score (4H3381-bH) of -0.48. The interaction score (4H349-bH) was 1.63, the interaction score (4H4001-bH) was -0.0821 and the interaction score (4H477-bN) was -0.435. It also gave an interaction score (4H56-bH) of 0.21, an interaction score (4H730-bH) of -0.529 and an interaction score (4H796-bH) of -0.9. The interaction score (4H932-bH) was -1.27 and the interaction score (4H949-bH) was -0.693.
